Experimental data: paper doi:10.1101/2025.04.23.650119

Target: α-conotoxin ImII (Conus imperialis)
Assay: cryo-EM structure

**Q.** For α-conotoxin ImII (peptide), which stoichiometry N is on record?
**A.** 2
